# The Immune Epitope Database (IEDB)
# How the values were obtained:
# HLA-A*30:01 = test: IEDB peptide-MHC binding, purified MHC/competitive/radioactivity; filed as Kd, often an IC50 or EC50 that approximates it; ≥ and ≤ were set here for values at or beyond the usual limits of such assays
# HLA-A*02:01 [1] = test: IEDB peptide-MHC binding, purified MHC/competitive/fluorescence; ≥ and ≤ were set here for values at or beyond the usual limits of such assays
# HLA-A*24:02 = test: IEDB peptide-MHC binding, purified MHC/competitive/radioactivity; filed as Kd, often an IC50 or EC50 that approximates it; ≥ and ≤ were set here for values at or beyond the usual limits of such assays
# HLA-A*23:01 = test: as above
# HLA-A*26:01 = test: as above
# HLA-A*68:01 = test: as above; conditions: source organism: Dengue virus 2 Jamaica/1409/1983
# HLA-A*30:02 = test: as above
# HLA-A*29:02 = test: as above
# HLA-B*58:01 = test: IEDB peptide-MHC binding, purified MHC/direct/fluorescence; filed as Kd, often an IC50 or EC50 that approximates it; ≥ and ≤ were set here for values at or beyond the usual limits of such assays; conditions: source organism: Mycobacterium tuberculosis
# HLA-B*15:01 = test: as above
# HLA-A*02:01 [2] = test: as above; conditions: source organism: Influenza A virus (A/Jiangsu/38/2004(H3N2))
# HLA-A*01:01 [3] = test: IEDB peptide-MHC binding, purified MHC/competitive/radioactivity; filed as Kd, often an IC50 or EC50 that approximates it; ≥ and ≤ were set here for values at or beyond the usual limits of such assays
# HLA-A*03:01 = test: IEDB peptide-MHC binding, purified MHC/direct/fluorescence; filed as Kd, often an IC50 or EC50 that approximates it; ≥ and ≤ were set here for values at or beyond the usual limits of such assays; conditions: source organism: Vibrio parahaemolyticus RIMD 2210633
# HLA-A*02:03 = test: IEDB peptide-MHC binding, purified MHC/competitive/radioactivity; filed as Kd, often an IC50 or EC50 that approximates it; ≥ and ≤ were set here for values at or beyond the usual limits of such assays; conditions: source organism: Vaccinia virus WR
# HLA-A*02:06 = test: as above; conditions: source organism: Vaccinia virus WR
# HLA-A*02:02 = test: as above; conditions: source organism: Vaccinia virus WR
# HLA-A*01:01 [4] = test: IEDB peptide-MHC binding, purified MHC/direct/fluorescence; filed as Kd, often an IC50 or EC50 that approximates it; ≥ and ≤ were set here for values at or beyond the usual limits of such assays; conditions: source organism: SARS-CoV1
# [5] = source organism: Vaccinia virus WR
# [6] = source organism: Dengue virus 2 Jamaica/1409/1983
# [7] = source organism: Zaire ebolavirus
# [8] = source organism: Dengue virus 3 Martinique/1243/1999
# [9] = source organism: Dengue virus 4 Philippines/H241/1956
# [10] = source organism: Lymphocytic choriomeningitis virus (strain Armstrong)
# [11] = source organism: Lassa virus Josiah
# [12] = source organism: Sudan ebolavirus
# [13] = source organism: Dengue virus 3 Singapore/8120/1995
# [14] = source organism: Mammarenavirus guanaritoense
# [15] = source organism: Mammarenavirus brazilense
# [16] = source organism: SARS coronavirus Tor2
sequence,measurement,setting,value
AAMISLAKK,Kd,HLA-A*30:01; [5],151 nM
AGKRSLRPQP,Kd,HLA-A*30:01; [6],1900 nM
AIVNAQPKC,IC50,HLA-A*02:01 [1]; [7],≥ 73.8 µM
ALTLATGPIS,Kd,HLA-A*30:01; [6],220 nM
ATWAENIQV,IC50,HLA-A*02:01 [1]; source organism: West Nile virus NY-99,0.78 µM
AWMVHRQWF,Kd,HLA-A*24:02; [8],42.9 nM
same,Kd,HLA-A*23:01; [8],340 nM
EKLRIKGMSY,Kd,HLA-A*26:01; [9],4.65 µM
ENPYRTWAY,Kd,HLA-A*26:01; [9],4.38 µM
EQGLIQYPT,IC50,HLA-A*02:01 [1]; [7],60.5 µM
ERNRVSTPQG,Kd,HLA-A*30:01; [9],121 nM
ESWILRNPGF,Kd,HLA-A*30:01; [9],427 nM
same,Kd,HLA-A*26:01; [9],9.73 µM
ETAECPNTNR,Kd,HLA-A*26:01; [6],10.5 µM
same,Kd,HLA-A*68:01,13.9 nM
EYHLLYQKT,Kd,HLA-A*30:02; [10],≥ 35000 nM
same,Kd,HLA-A*26:01; [10],≥ 77.9 µM
FARLLNLSG,IC50,HLA-A*02:01 [1]; [7],48.2 µM
FFQEVPHVI,Kd,HLA-A*24:02; [11],713 nM
same,Kd,HLA-A*29:02; [11],508 nM
same,Kd,HLA-A*23:01; [11],239 nM
FKIDNNTFV,IC50,HLA-A*02:01 [1]; [12],40.8 µM
FSGLLIVKT,IC50,HLA-A*02:01 [1]; [7],≥ 370 µM
GGTPAVEEW,Kd,HLA-B*58:01,202 nM
GLDDQEKKI,IC50,HLA-A*02:01 [1]; [7],41.2 µM
GLITNTIAG,IC50,HLA-A*02:01 [1]; [7],4.1 µM
GLNLEGNGV,IC50,HLA-A*02:01 [1]; [7],10.8 µM
GLRQLANET,IC50,HLA-A*02:01 [1]; [12],34.2 µM
GTKIALLEL,Kd,HLA-A*30:01; [5],1.34 nM
GVKGFSFKY,Kd,HLA-B*15:01; source organism: Influenza A virus (A/eka/Thailand/EkA1NRC/2004(H5N1)),≥ 20 µM
GVPLLALGCY,Kd,HLA-A*30:02; source organism: Dengue virus 1 Brazil/97-11/1997,37.6 nM
HSLISNLLV,Kd,HLA-A*30:01; source organism: Vaccinia virus Copenhagen,558 nM
HVKIPTHLT,Kd,HLA-A*30:01; [5],224 nM
IDQIIHDFV,IC50,HLA-A*02:01 [1]; [7],≥ 195 µM
IFITDNVHTW,Kd,HLA-A*23:01; [6],36.7 nM
ILDGENCTL,Kd,HLA-A*02:01 [2],37.8 nM
ILPEEQDQNY,Kd,HLA-A*30:02; [13],≥ 37200 nM
same,Kd,HLA-A*01:01 [3]; [13],≥ 38700 nM
INYCLDFLF,Kd,HLA-A*24:02; [14],1270 nM
same,Kd,HLA-A*29:02; [14],125 nM
same,Kd,HLA-A*23:01; [14],56.5 nM
IWYMWLGARY,Kd,HLA-A*30:02; [8],3.2 nM
KISISSLCK,Kd,HLA-A*30:01; [5],88.1 nM
KMRDTLPAK,Kd,HLA-A*30:01; [5],1.58 nM
KNKESLPML,Kd,HLA-A*30:01; [5],18.3 nM
KSRVERVQV,Kd,HLA-A*30:01; [5],11.2 nM
KTMGSCIQM,Kd,HLA-A*30:01; [5],52.3 nM
KVAAEGINY,Kd,HLA-A*30:02; source organism: Dengue virus 2 Peru/IQT2913/1996,110 nM
KVASEGIKY,Kd,HLA-A*30:02; [8],1740 nM
KVHEISARG,Kd,HLA-A*30:01; [5],176 nM
KVNPEIDTT,IC50,HLA-A*02:01 [1]; [7],≥ 120 µM
LASLTPKAQ,IC50,HLA-A*02:01 [1]; source organism: Variola virus,≥ 206 µM
LICGLRQLA,IC50,HLA-A*02:01 [1]; [7],0.995 µM
LIGNEEYTDY,Kd,HLA-A*01:01 [3]; [6],1070 nM
LLNLSGVNN,IC50,HLA-A*02:01 [1]; [7],≥ 167 µM
LLQAGASVK,Kd,HLA-A*03:01,79 nM
LLWYRRGTF,Kd,HLA-B*15:01; source organism: Mycobacterium tuberculosis C,0.36 µM
LSRKTFDSEY,Kd,HLA-A*30:02; [6],627 nM
same,Kd,HLA-A*01:01 [3]; [6],1820 nM
LWMAEIPLQW,Kd,HLA-A*24:02; [8],38.6 nM
same,Kd,HLA-A*23:01; [8],13.7 nM
LYALITEQF,Kd,HLA-A*24:02; [15],16.8 nM
same,Kd,HLA-A*29:02; [15],731 nM
same,Kd,HLA-A*23:01; [15],2.79 nM
LYIAENGEL,Kd,HLA-A*24:02; [15],1680 nM
same,Kd,HLA-A*29:02; [15],≥ 20700 nM
same,Kd,HLA-A*23:01; [15],247 nM
MPLGVVTNS,IC50,HLA-A*02:01 [1]; [12],13 µM
MQLKIDKLT,Kd,HLA-A*02:03,≥ 60100 nM
same,Kd,HLA-A*02:06,≥ 59.6 µM
same,Kd,HLA-A*02:02,7670 nM
MTDDIGMGVT,Kd,HLA-A*01:01 [3]; [6],1130 nM
NMLDDFSAGA,Kd,HLA-A*02:03,161 nM
same,Kd,HLA-A*02:06,0.242 µM
same,Kd,HLA-A*02:02,308 nM
NQDLNGNWY,Kd,HLA-A*01:01 [4],282 nM
same,Kd,HLA-B*15:01; source organism: SARS-CoV1,15.3 µM
same,Kd,HLA-A*30:02; [16],2710 nM
same,Kd,HLA-A*26:01; [16],≥ 35 µM
same,Kd,HLA-A*24:02; [16],≥ 77600 nM
same,Kd,HLA-A*29:02; [16],854 nM
same,Kd,HLA-A*23:01; [16],≥ 77800 nM
NYPLWSQSY,Kd,HLA-A*24:02; source organism: Homo sapiens,363 nM
PLSINVSGV,Kd,HLA-A*02:03,45.3 nM
same,Kd,HLA-A*02:06,17.9 µM
same,Kd,HLA-A*02:02,1120 nM
PTNDIPSLFI,Kd,HLA-A*02:03,≥ 61800 nM
same,Kd,HLA-A*02:06,14.8 µM
same,Kd,HLA-A*02:02,11000 nM
PVLEKKVCAI,Kd,HLA-A*02:03,1190 nM
same,Kd,HLA-A*02:06,1.05 µM
same,Kd,HLA-A*02:02,541 nM
